In US20230129812A1, “COMPOSITIONS AND METHODS FOR TREATING PULMONARY HYPERTENSION” (Acceleron Pharma Inc., priority 2020, published 2023):

Legend:
activin A [1] = target: T1, activin A (Homo sapiens, UniProt P08476); test: A-204 reporter gene assay, pGL3(CAGA)12 luciferase; type: cell-based; set-up: key to Activin Inhibition Activity: +: Poor activity (roughly 1 × 10^−6 KI); ++: Moderate activity (roughly 1 × 10^−7 KI); +++: Good (wild-type) activity (roughly 1 × 10^−8 KI); ++++: Greater than wild-type activity; details: Table 9; cell-based A-204 assay
T1 sequence (P08476 311-426): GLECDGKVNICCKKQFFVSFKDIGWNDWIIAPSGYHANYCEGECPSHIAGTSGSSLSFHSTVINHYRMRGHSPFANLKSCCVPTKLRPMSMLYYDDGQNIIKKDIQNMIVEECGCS
Source text: (§1) An A-204 reporter gene assay was used to evaluate the effects of ActRIIB-Fc proteins and ActRIIB variant Fc fusion polypeptides on signaling by GDF-11 and activin A. Cell line: human rhabdomyosarcoma (derived from muscle). Reporter vector: pGL3(CAGA)12 (described in Dennler et al, 1998, EMBO 17: 3091-3100). The CAGA12 motif is present in TGF-beta responsive genes (e.g., PAI-1 gene), so this vector is of general use for factors signaling through SMADs.
(§2) Day 1: Split A-204 cells into 48-well plate.
(§3) Day 2: A-204 cells transfected with 10 ug pGL3(CAGA)12 or pGL3(CAGA)12(10 ug)+pRLCMV (1 pg) and Fugene.
(§4) Day 3: Add factors (diluted into medium+0.1% BSA). Inhibitors need to be preincubated with factors for 1 hr before adding to cells. Six hrs later, cells were rinsed with PBS and lysed.
(§5) This is followed by a luciferase assay.
(§6) Activity of ActRIIB-Fc proteins and ActRIIB variant Fc fusion polypeptides was tested in a cell-based assay as described above. Some variants were tested in different C-terminal truncation constructs. As discussed above, truncations of five or fifteen amino acids caused reduction in activity. […]

GDF11 = target: T2, GDF11 (Homo sapiens, UniProt O95390); test: A-204 reporter gene assay, pGL3(CAGA)12 luciferase; type: cell-based; set-up: key to GDF11 Inhibition Activity: +: Poor activity (roughly 1 × 10^−6 KI); ++: Moderate activity (roughly 1 × 10^−7 KI); +++: Good (wild-type) activity (roughly 1 × 10^−8 KI); ++++: Greater than wild-type activity; details: Table 9; cell-based A-204 assay
T2 sequence (O95390 299-407): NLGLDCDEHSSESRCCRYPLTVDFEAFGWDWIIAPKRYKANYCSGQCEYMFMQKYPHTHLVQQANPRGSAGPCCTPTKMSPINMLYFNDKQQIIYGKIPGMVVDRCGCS
Source text: as §1, §2, §3, §4, §5, §6

GDF8 = target: T3, GDF8 (Homo sapiens, UniProt O14793); test: Biacore assay, ActRIIB-Fc captured with anti-hFc antibody, ligand injected (Example 8); type: binding; details: GDF8; Table 10
T3 sequence (O14793 267-375): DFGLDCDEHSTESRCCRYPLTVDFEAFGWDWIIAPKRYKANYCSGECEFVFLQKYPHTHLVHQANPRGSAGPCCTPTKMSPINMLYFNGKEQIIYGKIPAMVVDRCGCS
Protocol: (§7) Binding of certain ActRIIB-Fc proteins and ActRIIB variant Fc fusion polypeptides to ligands was tested in a Biacore™ assay.
(§8) The ActRIIB-Fc variants or wild-type protein were captured onto the system using an anti-hFc antibody. Ligands were injected and flowed over the captured receptor proteins.

activin A [2] = target: T1, activin A; test: as above; type: binding; details: Activin A; Table 10
Protocol: as §7, §8

Row | Molecule | Activin Inhibition Activity (activin A [1]) | GDF11 Inhibition Activity (GDF11) | Koff (GDF8) [s⁻¹] | Koff (activin A [2]) [s⁻¹]
1 | R64 A24N 20-119: ActRIIB-Fc variation R64 A24N, amino acids 20-119 of SEQ ID NO:1 (protein, Fc fusion partner not cited) GRGENETRECIYYNANWELERTNQSGLERCEGEQDKRLHCYASWRNSSGTIELVKKGCWLDDFNCYDRQECVATEENPQVYFCCCEGNFCNERFTHLPEA | ++ (Moderate activity (roughly 1 × 10^−7 KI)) | ++ (Moderate activity (roughly 1 × 10^−7 KI)) |  | 
2 | R64 A24N K74A 20-119: ActRIIB-Fc variation R64 A24N K74A, amino acids 20-119 of SEQ ID NO:1 (protein, Fc fusion partner not cited) GRGENETRECIYYNANWELERTNQSGLERCEGEQDKRLHCYASWRNSSGTIELVAKGCWLDDFNCYDRQECVATEENPQVYFCCCEGNFCNERFTHLPEA | + (Poor activity (roughly 1 × 10^−6 KI)) | + (Poor activity (roughly 1 × 10^−6 KI)) |  | 
3 | ActRIIB(R64K 20-129)-hFc: ActRIIB-Fc variant with R64K substitution, residues 20-129 (protein) GRGEAETRECIYYNANWELERTNQSGLERCEGEQDKRLHCYASWKNSSGTIELVKKGCWLDDFNCYDRQECVATEENPQVYFCCCEGNFCNERFTHLPEAGGPEVTYEPPGGGTHTCPPCPAPELLGGPSVFLFPPKPKDTLMISRTPEVTCVVVDVSHEDPEVKFNWYVDGVEVHNAKTKPREEQYNSTYRVVSVLTVLHQDWLNGKEYKCKVSNKALPVPIEKTISKAKGQPREPQVYTLPPSREEMTKNQVSLTCLVKGFYPSDIAVEWESNGQPENNYKTTPPVLDSDGSFFLYSKLTVDKSRWQQGNVFSCSVMHEALHNHYTQKSLSLSPGK | +++ (Good (wild-type) activity (roughly 1 × 10^−8 KI)) | +++ (Good (wild-type) activity (roughly 1 × 10^−8 KI)) | 0.000209 | 0.000628
4 | ActRIIB(K74A 20-134)-hFc: ActRIIB-Fc variant with K74A substitution, residues 20-134 (protein) GRGEAETRECIYYNANWELERTNQSGLERCEGEQDKRLHCYASWRNSSGTIELVAKGCWLDDFNCYDRQECVATEENPQVYFCCCEGNFCNERFTHLPEAGGPEVTYEPPPTAPTGGGTHTCPPCPAPELLGGPSVFLFPPKPKDTLMISRTPEVTCVVVDVSHEDPEVKFNWYVDGVEVHNAKTKPREEQYNSTYRVVSVLTVLHQDWLNGKEYKCKVSNKALPVPIEKTISKAKGQPREPQVYTLPPSREEMTKNQVSLTCLVKGFYPSDIAVEWESNGQPENNYKTTPPVLDSDGSFFLYSKLTVDKSRWQQGNVFSCSVMHEALHNHYTQKSLSLSPGK | ++++ | ++++ | 2.03e-05 | 
5 | R64 P129S P130A 20-134: ActRIIB-Fc variation R64 P129S P130A, amino acids 20-134 of SEQ ID NO:1 (protein) GRGEAETRECIYYNANWELERTNQSGLERCEGEQDKRLHCYASWRNSSGTIELVKKGCWLDDFNCYDRQECVATEENPQVYFCCCEGNFCNERFTHLPEAGGPEVTYEPSATAPTGGGTHTCPPCPAPELLGGPSVFLFPPKPKDTLMISRTPEVTCVVVDVSHEDPEVKFNWYVDGVEVHNAKTKPREEQYNSTYRVVSVLTVLHQDWLNGKEYKCKVSNKALPVPIEKTISKAKGQPREPQVYTLPPSREEMTKNQVSLTCLVKGFYPSDIAVEWESNGQPENNYKTTPPVLDSDGSFFLYSKLTVDKSRWQQGNVFSCSVMHEALHNHYTQKSLSLSPGK | +++ (Good (wild-type) activity (roughly 1 × 10^−8 KI)) | +++ (Good (wild-type) activity (roughly 1 × 10^−8 KI)) |  | 
6 | ActRIIB(P129S, P130R 20-134)-hFc: ActRIIB-Fc variant with P129S and P130R substitutions, residues 20-134 (protein) GRGEAETRECIYYNANWELERTNQSGLERCEGEQDKRLHCYASWRNSSGTIELVKKGCWLDDFNCYDRQECVATEENPQVYFCCCEGNFCNERFTHLPEAGGPEVTYEPSRTAPTGGGTHTCPPCPAPELLGGPSVFLFPPKPKDTLMISRTPEVTCVVVDVSHEDPEVKFNWYVDGVEVHNAKTKPREEQYNSTYRVVSVLTVLHQDWLNGKEYKCKVSNKALPVPIEKTISKAKGQPREPQVYTLPPSREEMTKNQVSLTCLVKGFYPSDIAVEWESNGQPENNYKTTPPVLDSDGSFFLYSKLTVDKSRWQQGNVFSCSVMHEALHNHYTQKSLSLSPGK |  |  | 0.00018 | 0.000417
7 | A64 20-134: ActRIIB-Fc with alanine at position 64, amino acids 20-134 of SEQ ID NO:1 (protein, Fc fusion partner not cited) GRGEAETRECIYYNANWELERTNQSGLERCEGEQDKRLHCYASWANSSGTIELVKKGCWLDDFNCYDRQECVATEENPQVYFCCCEGNFCNERFTHLPEAGGPEVTYEPPPTAPT | + (Poor activity (roughly 1 × 10^−6 KI)) | + (Poor activity (roughly 1 × 10^−6 KI)) |  | 
8 | R64 L79P K74A 20-134: ActRIIB-Fc variation R64 L79P K74A, amino acids 20-134 of SEQ ID NO:1 (protein, Fc fusion partner not cited) GRGEAETRECIYYNANWELERTNQSGLERCEGEQDKRLHCYASWRNSSGTIELVAKGCWPDDFNCYDRQECVATEENPQVYFCCCEGNFCNERFTHLPEAGGPEVTYEPPPTAPT | + (Poor activity (roughly 1 × 10^−6 KI)) | + (Poor activity (roughly 1 × 10^−6 KI)) |  | 
9 | R64 L79P 20-134: ActRIIB-Fc variation R64 L79P, amino acids 20-134 of SEQ ID NO:1 (protein, Fc fusion partner not cited) GRGEAETRECIYYNANWELERTNQSGLERCEGEQDKRLHCYASWRNSSGTIELVKKGCWPDDFNCYDRQECVATEENPQVYFCCCEGNFCNERFTHLPEAGGPEVTYEPPPTAPT | + (Poor activity (roughly 1 × 10^−6 KI)) | + (Poor activity (roughly 1 × 10^−6 KI)) |  | 
10 | R64N 20-134: ActRIIB-Fc variation R64N, amino acids 20-134 of SEQ ID NO:1 (protein, Fc fusion partner) GRGEAETRECIYYNANWELERTNQSGLERCEGEQDKRLHCYASWNNSSGTIELVKKGCWLDDFNCYDRQECVATEENPQVYFCCCEGNFCNERFTHLPEAGGPEVTYEPPPTAPT | + (Poor activity (roughly 1 × 10^−6 KI)) | + (Poor activity (roughly 1 × 10^−6 KI)) |  | 
11 | R64 20-129: ActRIIB-Fc R64, amino acids 20-129 of SEQ ID NO:1 (protein, Fc fusion partner not cited) GRGEAETRECIYYNANWELERTNQSGLERCEGEQDKRLHCYASWRNSSGTIELVKKGCWLDDFNCYDRQECVATEENPQVYFCCCEGNFCNERFTHLPEAGGPEVTYEPP | +++ (Good (wild-type) activity (roughly 1 × 10^−8 KI)) | +++ (Good (wild-type) activity (roughly 1 × 10^−8 KI)) |  | 
